Earlier results in publication PMC2744109.
pKd: −log10 of the molar value. Values joined by “and” are separate entries in the source; they are usually repeats but may differ in a detail not shown here. Identical values can stand only once.

Columns and labels:
[1] = biological target: Factor VIII (Homo sapiens) (UniProt P00451)
[2] = biological target: LRP1 CR5-CR7 (Homo sapiens) (UniProt Q07954)
[3] = biological target: LRP1 CR7-CR8 (Homo sapiens) (UniProt Q07954); test: ITC

LRP1, sequence (Q07954 20-4544): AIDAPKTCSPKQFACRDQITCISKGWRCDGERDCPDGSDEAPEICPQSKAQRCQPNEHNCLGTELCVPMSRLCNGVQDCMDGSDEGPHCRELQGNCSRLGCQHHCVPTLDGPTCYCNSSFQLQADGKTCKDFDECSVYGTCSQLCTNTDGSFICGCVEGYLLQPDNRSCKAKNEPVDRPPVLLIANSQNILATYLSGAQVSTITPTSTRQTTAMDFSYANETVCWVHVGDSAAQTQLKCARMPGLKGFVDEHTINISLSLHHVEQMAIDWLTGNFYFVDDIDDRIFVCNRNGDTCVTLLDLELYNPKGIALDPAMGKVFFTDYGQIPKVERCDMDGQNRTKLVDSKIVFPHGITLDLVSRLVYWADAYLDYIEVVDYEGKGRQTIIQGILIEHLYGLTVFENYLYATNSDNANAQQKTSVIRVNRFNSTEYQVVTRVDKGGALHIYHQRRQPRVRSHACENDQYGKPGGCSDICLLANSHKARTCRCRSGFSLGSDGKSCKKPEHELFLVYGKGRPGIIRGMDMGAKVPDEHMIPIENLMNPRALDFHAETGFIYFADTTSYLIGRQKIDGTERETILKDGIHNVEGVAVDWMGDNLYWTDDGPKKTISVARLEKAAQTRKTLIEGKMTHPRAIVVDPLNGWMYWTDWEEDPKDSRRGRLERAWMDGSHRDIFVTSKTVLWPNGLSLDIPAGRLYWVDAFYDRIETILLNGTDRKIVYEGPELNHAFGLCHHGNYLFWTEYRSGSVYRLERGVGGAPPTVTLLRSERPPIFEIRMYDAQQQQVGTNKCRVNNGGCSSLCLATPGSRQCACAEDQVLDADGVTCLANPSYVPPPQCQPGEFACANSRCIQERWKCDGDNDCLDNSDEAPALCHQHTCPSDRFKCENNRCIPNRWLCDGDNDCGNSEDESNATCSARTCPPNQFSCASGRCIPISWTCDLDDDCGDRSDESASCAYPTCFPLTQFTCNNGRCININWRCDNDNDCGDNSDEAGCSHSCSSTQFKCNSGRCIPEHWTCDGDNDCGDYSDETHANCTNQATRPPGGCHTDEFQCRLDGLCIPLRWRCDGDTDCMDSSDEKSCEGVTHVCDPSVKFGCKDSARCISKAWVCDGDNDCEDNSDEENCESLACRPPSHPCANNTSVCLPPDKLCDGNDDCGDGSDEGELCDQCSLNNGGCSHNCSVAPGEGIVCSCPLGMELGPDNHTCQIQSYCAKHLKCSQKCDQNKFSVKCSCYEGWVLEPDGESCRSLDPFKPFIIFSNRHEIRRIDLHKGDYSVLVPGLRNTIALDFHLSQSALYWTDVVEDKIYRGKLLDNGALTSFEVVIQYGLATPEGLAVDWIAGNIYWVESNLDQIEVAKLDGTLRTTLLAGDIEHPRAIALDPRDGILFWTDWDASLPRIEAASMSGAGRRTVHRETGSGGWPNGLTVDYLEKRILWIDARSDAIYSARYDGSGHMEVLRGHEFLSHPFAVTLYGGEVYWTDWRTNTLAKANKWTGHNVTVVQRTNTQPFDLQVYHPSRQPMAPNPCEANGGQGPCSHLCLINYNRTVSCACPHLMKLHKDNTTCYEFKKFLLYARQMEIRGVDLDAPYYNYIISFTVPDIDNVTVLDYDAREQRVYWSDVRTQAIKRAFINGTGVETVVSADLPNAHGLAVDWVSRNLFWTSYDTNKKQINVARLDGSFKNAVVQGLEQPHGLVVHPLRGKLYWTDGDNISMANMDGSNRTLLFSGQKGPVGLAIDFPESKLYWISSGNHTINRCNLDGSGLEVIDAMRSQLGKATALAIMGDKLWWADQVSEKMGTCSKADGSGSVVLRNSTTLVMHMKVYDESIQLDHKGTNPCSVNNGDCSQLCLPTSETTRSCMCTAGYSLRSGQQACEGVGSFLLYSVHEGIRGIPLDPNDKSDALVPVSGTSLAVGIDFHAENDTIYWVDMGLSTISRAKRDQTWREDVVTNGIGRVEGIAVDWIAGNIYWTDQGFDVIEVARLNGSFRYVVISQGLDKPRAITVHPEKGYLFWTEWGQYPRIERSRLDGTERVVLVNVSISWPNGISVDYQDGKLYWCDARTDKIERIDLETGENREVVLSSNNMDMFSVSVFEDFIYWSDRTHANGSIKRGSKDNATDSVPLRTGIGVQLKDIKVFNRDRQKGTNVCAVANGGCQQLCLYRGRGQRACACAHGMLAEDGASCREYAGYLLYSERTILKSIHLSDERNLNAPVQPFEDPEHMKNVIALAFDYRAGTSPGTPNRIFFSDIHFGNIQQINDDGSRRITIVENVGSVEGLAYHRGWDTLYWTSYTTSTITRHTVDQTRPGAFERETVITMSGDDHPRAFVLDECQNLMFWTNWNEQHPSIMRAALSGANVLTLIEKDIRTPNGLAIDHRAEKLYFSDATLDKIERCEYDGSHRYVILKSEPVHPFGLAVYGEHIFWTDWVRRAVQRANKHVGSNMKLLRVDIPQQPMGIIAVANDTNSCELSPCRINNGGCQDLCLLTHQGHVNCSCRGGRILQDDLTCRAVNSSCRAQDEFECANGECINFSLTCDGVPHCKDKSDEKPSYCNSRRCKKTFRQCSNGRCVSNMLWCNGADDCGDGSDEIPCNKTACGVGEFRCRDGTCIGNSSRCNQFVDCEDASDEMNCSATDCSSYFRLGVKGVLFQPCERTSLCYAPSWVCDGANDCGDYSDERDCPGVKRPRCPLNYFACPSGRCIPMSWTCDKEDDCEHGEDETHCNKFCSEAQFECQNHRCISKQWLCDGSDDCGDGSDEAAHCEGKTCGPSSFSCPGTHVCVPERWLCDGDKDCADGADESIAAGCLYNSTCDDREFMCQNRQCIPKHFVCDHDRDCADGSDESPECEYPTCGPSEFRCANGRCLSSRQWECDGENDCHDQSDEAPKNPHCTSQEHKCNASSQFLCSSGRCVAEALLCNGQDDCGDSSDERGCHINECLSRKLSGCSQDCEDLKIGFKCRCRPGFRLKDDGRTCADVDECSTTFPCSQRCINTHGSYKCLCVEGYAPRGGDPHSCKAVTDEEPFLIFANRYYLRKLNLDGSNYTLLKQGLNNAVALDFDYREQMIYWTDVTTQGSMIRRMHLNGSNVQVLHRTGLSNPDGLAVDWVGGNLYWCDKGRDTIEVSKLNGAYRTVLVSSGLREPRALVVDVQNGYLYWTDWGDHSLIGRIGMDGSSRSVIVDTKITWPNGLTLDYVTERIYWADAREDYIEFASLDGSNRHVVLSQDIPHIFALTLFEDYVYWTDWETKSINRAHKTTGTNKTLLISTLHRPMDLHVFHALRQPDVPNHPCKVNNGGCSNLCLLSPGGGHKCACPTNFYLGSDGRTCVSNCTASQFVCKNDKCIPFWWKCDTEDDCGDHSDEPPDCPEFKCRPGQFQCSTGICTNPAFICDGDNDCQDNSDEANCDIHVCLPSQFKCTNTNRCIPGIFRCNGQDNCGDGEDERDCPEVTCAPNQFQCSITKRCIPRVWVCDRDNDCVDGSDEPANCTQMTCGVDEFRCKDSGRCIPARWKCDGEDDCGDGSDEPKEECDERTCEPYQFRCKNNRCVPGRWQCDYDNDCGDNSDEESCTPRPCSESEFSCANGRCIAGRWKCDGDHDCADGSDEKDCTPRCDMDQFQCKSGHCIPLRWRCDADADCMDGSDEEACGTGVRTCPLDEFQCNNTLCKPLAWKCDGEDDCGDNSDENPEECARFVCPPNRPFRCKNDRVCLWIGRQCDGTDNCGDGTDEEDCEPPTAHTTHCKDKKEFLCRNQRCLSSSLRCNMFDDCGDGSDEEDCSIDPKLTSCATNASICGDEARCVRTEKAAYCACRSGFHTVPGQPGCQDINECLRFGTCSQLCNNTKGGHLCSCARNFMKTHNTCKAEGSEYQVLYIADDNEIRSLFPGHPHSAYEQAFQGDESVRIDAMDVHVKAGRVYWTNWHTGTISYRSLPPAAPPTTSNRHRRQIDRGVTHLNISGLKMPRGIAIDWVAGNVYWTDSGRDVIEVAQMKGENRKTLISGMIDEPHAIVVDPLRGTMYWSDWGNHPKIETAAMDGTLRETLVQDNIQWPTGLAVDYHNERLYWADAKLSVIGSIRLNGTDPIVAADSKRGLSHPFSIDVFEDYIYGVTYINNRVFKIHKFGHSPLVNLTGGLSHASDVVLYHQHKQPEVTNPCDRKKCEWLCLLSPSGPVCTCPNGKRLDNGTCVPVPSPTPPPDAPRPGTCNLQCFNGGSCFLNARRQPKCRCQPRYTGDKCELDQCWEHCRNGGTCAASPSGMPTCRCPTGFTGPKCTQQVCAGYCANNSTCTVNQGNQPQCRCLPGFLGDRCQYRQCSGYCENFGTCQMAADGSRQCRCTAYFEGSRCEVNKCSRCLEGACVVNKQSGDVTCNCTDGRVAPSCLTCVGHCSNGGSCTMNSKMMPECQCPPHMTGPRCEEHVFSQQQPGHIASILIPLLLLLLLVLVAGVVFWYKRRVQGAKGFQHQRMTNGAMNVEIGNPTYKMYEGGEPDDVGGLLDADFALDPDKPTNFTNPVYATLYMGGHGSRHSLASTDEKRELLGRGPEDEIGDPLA
UniProt P00451, sequence (P00451 760-1332): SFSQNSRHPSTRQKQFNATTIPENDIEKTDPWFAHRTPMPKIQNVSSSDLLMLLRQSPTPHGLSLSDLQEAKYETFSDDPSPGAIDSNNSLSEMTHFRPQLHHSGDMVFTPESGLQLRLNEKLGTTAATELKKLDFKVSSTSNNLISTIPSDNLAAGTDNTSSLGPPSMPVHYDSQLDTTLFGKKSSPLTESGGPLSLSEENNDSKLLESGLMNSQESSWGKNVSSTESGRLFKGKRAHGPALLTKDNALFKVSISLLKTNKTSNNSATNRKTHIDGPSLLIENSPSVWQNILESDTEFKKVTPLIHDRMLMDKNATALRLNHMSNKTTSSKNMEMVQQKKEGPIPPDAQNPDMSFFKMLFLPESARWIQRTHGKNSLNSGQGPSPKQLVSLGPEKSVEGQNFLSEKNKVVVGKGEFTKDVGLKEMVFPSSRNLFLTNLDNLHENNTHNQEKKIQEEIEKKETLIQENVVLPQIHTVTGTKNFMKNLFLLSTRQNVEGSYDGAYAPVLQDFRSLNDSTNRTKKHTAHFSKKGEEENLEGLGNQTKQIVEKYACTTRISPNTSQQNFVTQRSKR

Substance: LRP1 (from UniProt Q07954)
- pKd [1]: 6.94 and 7.22

Substance: RAP (from UniProt P30533)
- pKd [2]: 8.80
- pKd [3]: 6.00

Substance: RAP D3 (from UniProt P30533)
- pKd [3]: 6.00
